Patent US7052908B2, “Androgen receptor coactivators” (University of Rochester, priority 1998, dated 2006)
Numbering of substitutions follows the chain as printed.

What was measured:
[1] = system: mARt877s; assay: AR transactivation, transient transfection CAT reporter assay, mutant AR; format: cell-based, human; details: mARt877s, DHT 10^-11 to 10^-8 M
[2] = biological target: T1, AR (Homo sapiens, UniProt P10275); assay: AR transcriptional activity (MMTV-CAT) in PC3 cells
T1 sequence (P10275 1-920): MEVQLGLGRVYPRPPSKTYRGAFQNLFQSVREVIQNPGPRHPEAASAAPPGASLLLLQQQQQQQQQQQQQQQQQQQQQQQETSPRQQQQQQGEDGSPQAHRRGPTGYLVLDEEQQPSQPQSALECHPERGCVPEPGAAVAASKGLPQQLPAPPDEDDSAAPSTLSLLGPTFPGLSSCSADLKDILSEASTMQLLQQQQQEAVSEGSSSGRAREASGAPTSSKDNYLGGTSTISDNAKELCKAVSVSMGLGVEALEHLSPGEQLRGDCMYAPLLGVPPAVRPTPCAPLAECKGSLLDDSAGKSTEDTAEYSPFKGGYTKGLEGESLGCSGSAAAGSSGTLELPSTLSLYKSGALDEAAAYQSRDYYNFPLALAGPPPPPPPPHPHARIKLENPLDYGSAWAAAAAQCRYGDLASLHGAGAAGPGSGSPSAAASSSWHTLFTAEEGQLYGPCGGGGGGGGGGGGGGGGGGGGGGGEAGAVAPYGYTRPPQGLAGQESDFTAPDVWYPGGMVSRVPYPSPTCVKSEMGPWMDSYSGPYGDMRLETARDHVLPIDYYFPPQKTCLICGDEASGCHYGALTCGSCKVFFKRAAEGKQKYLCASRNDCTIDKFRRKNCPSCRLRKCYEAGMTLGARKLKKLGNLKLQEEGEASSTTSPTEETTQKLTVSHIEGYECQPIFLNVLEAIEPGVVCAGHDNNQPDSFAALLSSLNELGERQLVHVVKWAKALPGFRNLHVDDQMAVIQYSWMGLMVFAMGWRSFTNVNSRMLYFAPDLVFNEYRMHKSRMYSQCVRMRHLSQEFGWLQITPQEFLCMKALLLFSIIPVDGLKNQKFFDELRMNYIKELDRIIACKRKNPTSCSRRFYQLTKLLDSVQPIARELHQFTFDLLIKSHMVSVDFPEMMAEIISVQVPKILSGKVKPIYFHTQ

[3] = biological target: T2, mARe708k (Homo sapiens, UniProt P10275, E710K); assay: AR transactivation, transient transfection CAT reporter assay, mutant AR; format: cell-based; details: mARe708k, DHT 10^-11 to 10^-8 M
T2 construct: expressed in transfected cells; host or cells: DU145
T2 sequence (P10275 1-920 E710K): T1 sequence (P10275 1-920) with E710K

[4] = biological target: T3, estrogen receptor (ER) (Homo sapiens, UniProt P03372); assay: Steroid receptor transactivation, ERE-CAT reporter in DU145 cells; format: cell-based; details: DU145
T3 construct: expressed in transfected cells; host or cells: DU145
T3 sequence (P03372 1-595): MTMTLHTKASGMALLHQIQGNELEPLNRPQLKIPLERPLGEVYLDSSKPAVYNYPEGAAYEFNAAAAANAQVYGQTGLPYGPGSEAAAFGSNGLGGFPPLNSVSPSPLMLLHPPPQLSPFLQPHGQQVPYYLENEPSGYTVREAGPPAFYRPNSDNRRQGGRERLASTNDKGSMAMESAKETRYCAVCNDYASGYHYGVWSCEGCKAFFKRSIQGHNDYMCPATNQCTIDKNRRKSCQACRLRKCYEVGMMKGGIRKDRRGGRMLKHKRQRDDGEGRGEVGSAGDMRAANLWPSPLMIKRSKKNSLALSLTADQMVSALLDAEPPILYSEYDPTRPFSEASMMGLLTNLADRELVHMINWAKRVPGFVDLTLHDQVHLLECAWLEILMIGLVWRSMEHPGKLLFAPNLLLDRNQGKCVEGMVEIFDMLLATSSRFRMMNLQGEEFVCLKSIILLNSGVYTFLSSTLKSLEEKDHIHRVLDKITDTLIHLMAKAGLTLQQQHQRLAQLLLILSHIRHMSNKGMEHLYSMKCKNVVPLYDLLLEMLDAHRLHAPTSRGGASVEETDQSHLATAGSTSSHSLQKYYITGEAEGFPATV

[5] = biological target: T4, wtAR (Homo sapiens, UniProt P10275); assay: AR transactivation, transient transfection with MMTV-CAT reporter in DU145 cells
T4 sequence (P10275 1-920): T1 sequence (P10275 1-920)

B1: ARA55: androgen receptor coactivator, 444 aa, SEQ ID NO:4, 91% homology with mouse hic5 (protein)
chain: MPRSGAPKERPAEPLTPPPSYGHQPTGQSGESSGASGDKDHLYSTVCKPRSPKPAAPAAPPFSSSSGVLGTGLCELDRLLQELNATQFNITDEIMSQFPSSKVASGEQKEDQSEDKKRPSLPSSPSPGLPKASATSATLELDRLMASLPDFRVQNHLPASGPTQPPVVSSTNEGSPSPPEPTAKGSLDTMLGLLQSDLSRRGVPTQAKGLCGSCNKPIAGQVVTALGRAWHPEHFVCGGCSTALGGSSFFEKDGAPFCPECYFERFSPRCGFCNQPIRHKMVTALGTHWHPEHFCCVSCGEPFGDEGFHEREGRPYCRRDFLQLFAPRCQGCQGPILDNYISALSLLWHPDCFVCRECFAPFSGGSFFEHEGRPLCENHFHARRGSLCPTCGLPVTGRCVSALGRRFHPDHFACTFCLRPLTKGSFQERAGKPYCQPCFLKLFG
modifications: Homo sapien
- enhancement of transactivation by ARA55 [1]: 4–8 fold
- increase of AR transcriptional activity on transfection with exogenous ARA55 [2]: 4 fold
- enhancement of transactivation by ARA55 [3]: 4–8 fold
- effect of ARA55 on ER transcriptional activation [4]: marginal effect
- AR transcriptional activity induction with ARA55 cotransfected ([5]; 10 nM DHT plus ARA55, DU145): 22.8 fold
- further increase of the DHT induction of AR transcriptional activity by ARA55 ([5]; 10 nM DHT, dose-dependent, plateau at AR:ARA55 1:4.5, DU145): 5.3 fold
- enhancement of transactivation by ARA55 ([5]; wtAR, DHT 10^-11 to 10^-8 M): 4–8 fold
